# Measured values: patent US20250136677A1 (ZOETIS SERVICES, published 2025)
# Read-outs that look alike come from different tables or passages of the source.
# T1: equine IL-31 protein (Equine_IL31) (equine)
# T1 construct: Recombinant equine IL-31
# T1 chain: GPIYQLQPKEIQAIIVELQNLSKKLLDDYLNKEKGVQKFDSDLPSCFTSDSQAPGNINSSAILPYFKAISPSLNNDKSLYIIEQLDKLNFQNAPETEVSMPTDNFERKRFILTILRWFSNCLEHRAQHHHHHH
# T2: mutant feline IL-31 11E12 protein (Feline_IL31_11E12_mutant) (feline)
# T2 construct: also called feline 11E12 mutant; 11E12 IL-31 mutant
# T2 chain: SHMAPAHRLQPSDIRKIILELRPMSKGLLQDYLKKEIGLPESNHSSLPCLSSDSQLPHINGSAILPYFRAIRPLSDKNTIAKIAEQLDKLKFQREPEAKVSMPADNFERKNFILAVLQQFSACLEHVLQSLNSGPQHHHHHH
# T3: wildtype feline IL-31 protein (Feline_IL31_wildtype) (feline)
# T3 construct: Full length feline IL-31 with C-terminal His tag, secreted from ExpiCHO cells; also called fIL-31
# T3 chain: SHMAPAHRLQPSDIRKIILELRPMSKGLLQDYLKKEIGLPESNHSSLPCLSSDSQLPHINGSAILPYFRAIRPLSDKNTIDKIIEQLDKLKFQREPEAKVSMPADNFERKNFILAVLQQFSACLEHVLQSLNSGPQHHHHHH
# T4: mutant feline IL-31 15H05 protein (Feline_IL31_15H05_mutant) (feline)
# T4 sequence: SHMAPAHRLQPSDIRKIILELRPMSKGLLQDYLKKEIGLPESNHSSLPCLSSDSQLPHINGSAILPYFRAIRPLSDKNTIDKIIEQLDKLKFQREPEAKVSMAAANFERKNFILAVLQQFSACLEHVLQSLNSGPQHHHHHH
# T5: human IL-31 (human, UniProt Q6EBC2 24-164)
# T5 sequence: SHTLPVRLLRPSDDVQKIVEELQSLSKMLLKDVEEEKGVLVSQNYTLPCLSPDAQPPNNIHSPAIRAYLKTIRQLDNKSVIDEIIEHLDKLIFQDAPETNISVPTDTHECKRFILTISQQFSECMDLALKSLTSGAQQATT
# T6: mutant feline IL-31 15H05 protein (Feline_IL31_15H05_mutant) (feline)
# T6 construct: also called feline 15H05 mutant; 15H05 IL-31 mutant
# T6 chain: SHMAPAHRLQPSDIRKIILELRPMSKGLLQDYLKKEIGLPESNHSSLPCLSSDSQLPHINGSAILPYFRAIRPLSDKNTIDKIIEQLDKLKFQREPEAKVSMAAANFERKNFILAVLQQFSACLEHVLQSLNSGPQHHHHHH
# Columns and labels:
# [1] = target: T1, equine IL-31 protein (Equine_IL31); assay: ELISA screening of hybridoma supernatants on equine IL-31
# [2] = target: T1, equine IL-31 protein (Equine_IL31); assay: SPR (Biacore), IL-31 surface, single antibody concentration
# Method: (§1) For the indirect ELISA method, antibody binding to wildtype and feline IL-31 15H05 mutant proteins was assessed. All nine canine monoclonal antibodies (ZIL1, ZIL8, ZIL8, ZIL11, ZIL69, ZIL94, ZIL154, ZIL159, and ZIL171) were capable of binding to wildtype feline IL-31 and binding was impacted by mutations in the mAb 15H05 epitope region confirming the correct binding phenotype determined during the initial screening used to identify them. In comparison, the 11E12 antibody bound to the wild-type feline IL-31 and its binding was not impacted by the mutations in the 15H05 epitope region as evidenced by the data in FIG. 4. To confirm binding, biacore analysis was performed using canine, feline, equine, human, feline 15H05 mutant, and feline 11E12 mutant IL-31 proteins as surfaces and a single test concentration of antibody. Similar to ELISA observations, all antibodies tested bound to wildtype feline IL-31. In agreement with the data described above in this section, mouse antibodies 11E12 and 15H05 both bound to canine and feline IL-31 surfaces. Three additional antibodies where shown to have this dual binding property, ZIL69 (partial canine binding), ZIL94, and ZIL159. From this group of nine fully canine antibodies, only ZIL1 and ZIL9 cross-reacted with equine IL-31. Of note, antibody 15H05 was the only one of all assayed herein that bound to canine, feline, and equine IL-31 indicating some level of epitope conservation across the three species. In contrast, none of the antibodies described herein bound to human IL-31. Additional biacore surfaces were used to verify ELISA observations showing differential binding of antibodies to wildtype feline IL-31 and two proteins with mutations in the 15H05 (15H05 mutant) or 11E12 (11E12 mutant) epitopes.
# [3] = target: T2, mutant feline IL-31 11E12 protein …; assay: as above
# Method: as §1
# [4] = target: T3, wildtype feline IL-31 protein …; assay: indirect ELISA, IL-31 protein coated
# Method: as §1, with “epitopes. […] In agreement with the ELISA results, all fully canine antibodies were impacted by the 15H05 mutation with the exception of ZIL94, ZIL154, and ZIL171 (partially affected). Differing results can be attributed to differences in the two assay methodologies.” for “epitopes.”
# [5] = target: T4, mutant feline IL-31 15H05 protein (Feline_IL31_15H05_mutant) (feline); assay: indirect ELISA, IL-31 protein coated
# [6] = target: T5, human IL-31; assay: SPR (Biacore), IL-31 surface, single antibody concentration
# Method: as §1
# [7] = target: T6, mutant feline IL-31 15H05 protein …; assay: indirect ELISA, IL-31 protein coated
# Method: as §1, with “epitopes. […] In agreement with the ELISA results, all fully canine antibodies were impacted by the 15H05 mutation with the exception of ZIL94, ZIL154, and ZIL171 (partially affected). Differing results can be attributed to differences in the two assay methodologies.” for “epitopes.”
Binder,binding result [1],binding result [2],binding result [3],ELISA OD [4] [OD],ELISA OD [5] [OD],binding result [6],ELISA OD [7] [OD]
"mouse anti equine IL-31 antibody 04H07 (antibody, V domains shown, Mouse hybridoma antibody; also called Mu_04H07) VH: QVQLQQPGAELVRPGASVKLSCKASGYTFTSYWMNWAKQRPGQGLEWIGMIDPSDSEIHYNQVFKDKATLTVDKSSSTAYMQLSSLTSEDSAVYYCARQDIVTTVDYWGQGTTLTVSS VL: DIVMSQSPSSLAVSVGEKVTMSCKSSQSLLYSINQKNHLAWFQQKPGQSPKLLIYWASTRESGVPARFTGSGSGTDFTLTISSVKTEDLAVYYCQQGYTYPFTFGSGTKLEIK",binds,–,–,–,–,–,–
"mouse anti equine IL-31 antibody 06A09 (antibody, V domains shown, Mouse hybridoma antibody; also called Mu_06A09) VH: QVQLQQPGAELVRPGASVKLSCKAYGYTFTSYWMNWVKQRPGQGLEWIGMIDPSDSETHYNQIFRDKATLTIDKSSSTAYMQLSSLTSEDSAVYFCARQDIVTTVDYWGQGTTLTVSS VL: DIVMSQSPSSLAVSVGEKVTMSCKSSQSLLYSINQKNFLAWYQQKPGQSPKLLIYWASTRESGVPDRFTGSGSGTDFTLTISSVKSEDLAVYYCQQHYGYPFTFGSGTKLEIK",binds,–,–,–,–,–,–

# Further lines, results first:
binding result [1],binding result [2],binding result [3],ELISA OD [4] [OD],ELISA OD [5] [OD],binding result [6],ELISA OD [7] [OD],Binder
–,no binding,no binding,1.6,1.31,–,–,"ZIL159 (recombinant fully canine antibody) (antibody, V domains shown, also called CAN-ZIL159) VH: EVQLVESGGDLVKPAGSLRLSCVASGFTFSSYVMTWVRQAPGKGLQWVAGINSEGSRTAYADAVKGRFTISRDNAKNTLYLQIDSLRAEDTAIYYCATGDIVATGTSYWGQGTLVTVSS VL: SNVLTQPPSVSVSLGQTATISCSGETLNRFYTQWFQQKAGQAPVLVIYKDTERPSGIPDRFSGSSSGNIHTLTISGARAEDEAAYYCKSAVSIDVGVFGGGTHLTVFR"
–,no binding,binds,1.62,–,no binding,1.38,"ZIL154 (recombinant fully canine antibody) (antibody, V domains shown, Fully canine IgG; also called CAN-ZIL154) VH: EVHLVESGGDLVKPWGSLRLSCVASGFTFSDRGMSWVRQSPGKGLQWVAYIRYDGSRTDYADAVEGRFTISRDNAKNTLYLQMNSLRAEDTAVYYCARWDGSSFDYWGQGTLVTVSS VL: DIVVTQTPLSLSVSPGETASFSCKASQSLLHSDGNTYLDWFRQKPGQSPQRLIYKVSNRDPGVPDRFSGSGSGTDFTLRISGVEADDAGLYYCMQAIHFPLTFGAGTKVELKR"
